According to the DeepSol protein solubility set:

Assay: soluble on expression in E. coli; label from the status in PepcDB or PDB records
For “MSPHPPQPHPPMPPMPPVTAPPGAMTPMPPVPADAQKLHQSTGNDACIKRLQQLNVEDGAKMYMKPTEPGKMGRPVDIQTNVFGIEVTKETTVHRFMVHAKADLTSTKEVTFTKKGKEDFVVQDRRDKCCNIFFLAVEKNPEFFKMKDGNQIVYDGQSTLYTTVNLFSELDANGTKSKVFQINGADTGNDDLKTLPCISLEIYAPRDNSITLSSENLGKRTADQNIEVNNREYTQFLELALNQHCVRETNRFGCFEHGKVYFLNATEEGFDQRDCVDVGDGKQLYPGLKKTIQFIEGPYGRGQNNPSLVIDGMKAAFHKEQTVIQKLFDITGQDPSNGLNNMTREKAAAVIKGLDCYSTYTNRKRHLRIEGIFHESATKTRFELPDGKTCSIAEYYADKYKISLQYPNANLVVCKDRGNNNYFPAELMTVSRNQRVTIPQQTGNQSQKTTKECAVLPDVRQRMIITGKNAVNITLENELLVALGIKVYSEPLMVQARELDGKELVYQRSVMSDMGKWRAPPGWFVKPATVPDLWAAYAVGNPGCRFSIGDVNQLVGMFIDSCKKKGMVIKPPCETGLYSTEKIMTQLEKVAASKCKYVLMITDDAIVHLHKQYKALEQRTMMIVQDMKISKANAVVKDGKRLTLENIINKTNVKLGGLNYTVSDAKKSMTDEQLIIGVGVSAPPAGTKYMMDNKGHLNPQIIGFASNAVANHEFVGDFVLAPSGQDTMASIEDVLQNSIDLFEKNRKALPKRIIIYRSGASEGSHASILAYEIPLARAIIHGYSKEIKLIFIVVTKEHSYRFFRDQLRSGGKATEMNIPPGIVLDNAVTNPACKQFFLNGHTTLQGTAKTPLYTVLADDCKAPMDRLEELTFTLCHHHQIVSLSTSIPTPLYVANEYAKRGRDLWGELTTKGPIEAKESQGERLKELTKEIGYKQTDLNQKRVNA”, the “soluble on expression in E. coli” value was “not soluble”. For “MWCLPLSSGNDAHMTTHIQRSALLPYPAGFLYDLVNDVARYPEFLPWCSSATVLDASESQMRASLEIAKGGLSQKFMTRNTLVPGESIVMDLVEGPFEQFHGVWTFKPLGEKACKISLDLSFDYAGTIVRATLGPLFNQAANTLVDAFCQRAKELHGLEHHHHHH”, the “soluble on expression in E. coli” value was “not soluble”. In the case of “QVQLVQSGGGLVKPGGSLRLSCAASGFTFSSYAMSWVRQAPGKGLEWVSAISGSGGSTYYADSVKGRFTISRDNSKNTLYLQMSSLRAEDTAVYYCARPYLTYPQRRGPQNVSPFDNWGQGTMVTVSSASTKGPSVFPLAPSSKSTSGGTAALGCLVKDYFPEPVTVSWNSGALTSGVHTFPAVLQSSGLYSLSSVVTVPSSSLGTQTYICNVNHKPSNTKVDKKVEPKSCAAAHHHHHHGAAEQKLISEEDLNGAA”, the “soluble on expression in E. coli” value was “soluble”. With “VLNHSIEVALLAGYMASELGLNADKARRGGLLHDIGKAVDQELEGSHTTIGAELARRYGEKEDIINMILSHHGEEEPMTP” the “soluble on expression in E. coli” value was “not soluble”. For “MTPTEQAAVRPPLPVKMVIAGGFGVGKTTAVGSISEIVPLTTEAAITEVAAGVDDLTHTPRKTTTTVAMDFGCITIDPTLKLYLFGTPGQDRFGFMWDDLVEGAVGGLVIVDTRRLDDCYAAVDYFEHKQIPFAVALNAFDGRIEHDLDEVRWALDVAERVPVVVFDARERGSVRDALLVVLELALARTGALEHHHHHH”, the “soluble on expression in E. coli” value was “not soluble”. For “MGSDKIHHHHHHMSNENIVLARNTERAPKHHLAAQTVAFSHYNHLSAQLPIEPTSGQLVEGGIRAQATQCLKNIQAVVESINHVMSDIVRMTIFVKDMRDAAAVEEVYAAFFTHYYPAKTVVAVADLPLGASVQMEALVSNGEGTIPNAPQAGDLIKLTNQTVQAPIDALASQTVAFSHYNNLSAQLPIDPQTGRVVAGCVKTQTKQCLKNIKAILTSIDVPFDDIVKINIYLKDLSKLEAVNQVHAAFFPDSGIARTVNYMPARTVIAVADLPMGAAVQVEAVVSHGDGTPPQAIEDRHGLIIEANNTEHAPKCPFSTQTVAFSHYNHLSAQLPLDPKTNALVAGGIKEQTTQCLENIKAIIESVDHSLADLVKVNIFVKEIEELAAVDDVYQTYFPEGTPARRVIGVTDLPKGAQIQIEAIAGNAEGTPPIG”, the “soluble on expression in E. coli” value was “not soluble”. With “MVLLKEYRVILPVSVDEYQVGQLYSVAEASKNETGGGEGVEVLVNEPYEKDDGEKGQYTHKIYHLQSKVPTFVRMLAPEGALNIHEKAWNAYPYCRTVITNEYMKEDFLIKIETWHKPDLGTQENVHKLEPEAWKHVEAIYIDIADRSQVLSKDYKAEEDPAKFKSIKTGRGPLGPNWKQELVNQKDCPYMCAYKLVTVKFKWWGLQNKVENFIHKQEKRLFTNFHRQLFCWLDKWVDLTMDDIRRMEEETKRQLDEMRQKDPVKGMTADD” the “soluble on expression in E. coli” value was “soluble”. With “GNSIASCADEQPHIGNYRLLKTIGKGNFAKVKLARHILTGREVAIKIIDKTQLNPTSLQKLFREVRIMKILNHPNIVKLFEVIETEKTLYLIMEYASGGEVFDYLVAHGRMKEKEARSKFRQIVSAVQYCHQKRIVHRDLKAENLLLDADMNIKIADFGFSNEFTVGGKLDAFCGAPPYAAPELFQGKKYDGPEVDVWSLGVILYTLVSGSLPFDGQNLKELRERVLRGKYRIPFYMSTDCENLLKRFLVLNPIKRGTLEQIMKDRWINAGHEEDELKPFVEPELDISDQKRIDIMVGMGYSQEEIQESLSKMKYDEITATYLLLGRK” the “soluble on expression in E. coli” value was “soluble”. In the case of “MALPLPDPSEQAYSDTLKTMLHERIAHSGGWISFADYMETVLYTPETGYYSGGAAKFGTAGDFVTAPEISPLFGQALARQIAPILSAVNQGSILEFGAGSGKLAVDLLCALEELNNLPQHYYILDLSADLQQRQRAMIEQHIPHLASRVSWLSALPEQFEGLILANEVLDAMPVHLVAWQNGNIAERGVIWKDQGPVWQDQPLAAGELLDVARQLPPADQFSYPLYISEISLTNRHFICSLAMLLQRGAILLVDYGFGQNEYYHPQRHQGTLMCHYRHHAHDDPFFLPGLQDITSHVDFSTIARTALDSGLQLAGYTTQAHFLINCGITDLLARTPADQPGSYLPLVSQVQRLVSPAEMGELFKVMVLSRDIDIDAASCGFTRGDLRRLLLEHHHHHH”, the “soluble on expression in E. coli” value was “not soluble”. With “MGSDKIHHHHHHMRVIELEDLDHIREAIVILKGLEVEGANKPGEKLGFKKGKNLMSIFTCKEMDRFIRDVQERKNFSLETNAYFFELHSKRFVSLRYLPKKSLLFVNDLTEERTLSEAKLDFVTAVSHELFTPLSASKANVFLLKDIENDPEKLEILGKVERSLDRMETIIRQLKVLTMIQLRLYELKMEHIPVEEVVHMVLEELREKIESKKIKVNVFVDVETIETDRFVFHTILKNLVSNAVKYSYPDSVVEISITGERLSVKDQGIGIKEEEKSRIFERFYRGSEALKMAPGSGLGLSIVKHLCDTIGYRLEVNSQWLVGSEFIVHFK” the “soluble on expression in E. coli” value was “not soluble”. For “MDGNAPEPRYWEKMRLVAEVLKAVEGPIYIATHVDPDGDAIGSSLGLYRALKALGKEAYWVADPPRFLRFLPKEEEYSDPVEKLPPGATLVALDSAEPSRVVGVPVEGFVINIDHHGTNPRFGHLHVVDPSKAATAQMVKDLIDLLGVEWTAEIATPVLTGILTDTGNFRFANTTPEVLRVAAELLGYGVKLAELTDRLQFRPPSYFRLMGQVLSTVAFHFGGLLVTAHLPEDAGAEEDSDDFVGLIRYVEGSVVSVFLRKREEGVKVSIRSRGGVSAQNIALKLGGGGHVPAAGATLKGLDLDQAYERVLEAVREELTRAGYL”, the “soluble on expression in E. coli” value was “soluble”. For “MRLEECRKRLEELEAAREELLKVLREMRIHSTKSIALIHAGKVEEAEQELKKAIELLEKVKAYREYPEIYFYLCNDAMQELVEAIAFKNAISGEFTFEIDLEVTPAAFLNGFADAVGELRRYALTKLIEGDFKSAERMLEVMEKIYERLMEFTTFPDKLVSGLRKKLDVARGGIERTKSDYIAAKVARLNESLGGN”, the “soluble on expression in E. coli” value was “not soluble”. In the case of “MPRTRVNLQKSEANDRSFTISSLEFCLSQLRKADPNLVKKAIASGDGLTESKNDVSTRLSEAHRYSVQQCLDNSEQLAQLHNQLVHCDNVFERLQATLYSFQDNLGSIGQDMKNLQLQSHHIHQELENRQKVRVELSQFVDDIAVSQTMMKTINDTDANDRGFLEALHELHHKITLILQRGNGDAVAVNDTMPILEGLKLKAVVKVREWLLQKMFQFRKPLSNYQVFQHQLLKCRFFYEFLLHHDLISAKELQDEYIDTISKMFFTYFKAYATRLFKLAMKDVATKEDALGSIDFAKPAGLGAIFSSKQHVVRNKATVFSIGQRHQILSDDFLGALIVPHAVTQNHQSVYLTIELAMARAMSVVLKSCEEQIALSWDAISLHLCICLCDKFTEVLAEREVPEVSDYWNTVTSFLWTRLNLVMSQHYESVKSVDLKKLMHSGSLDARPHFIVRRYAELTSAHLMIAKASGKEMGAKMEAVLENSEDSIEQLLTRMSAMQQTQKNKHVFLINNYDLILSIIDNEESKHTKIYAIVHELEQKSIDDFVEEMLEPHIGYMIKFVNECESLIVQGHTQLLVRYNDKVGTVVANFNAKWRPAVDSINSECIQLFTNFSLGTTILQTIFTKYVQYINRFTKILSHDVFAKNPVCSQLVNVHQVMLEIKRFKPAY”, the “soluble on expression in E. coli” value was “not soluble”. With “MGSDKIHHHHHHMTKETATISQLQQDIINNSQKGFPLTSQPYKTIAEQLADVNIVTNELEVFQAIDDLNSQEVLSRVGPVFDHKKAGASTLAALAVPAKDLDKIAGIVNQFDQVNHNYGREHVYNLWFVVTASDMVALNSTIVNIELLTGLPVLVLPMEASYHIDLAFSINVTGIESPTSNQENRPVTFDNNDTTSLTDIEKTALRRAIEKGLPTHLFPYQAIAQQLALSEQQVLMQISLWQEEGLIRRFGLVIKHRKLGYDANAMVVWNIPNENMDAIALKLAKCAPVSLCYQRPRRLPDWPYNLFCMIHGTDRSLVLQQISQITEQLGLESIEKDVLFSFKAYKQHGARYFKTNSKKAKTNNISAGKTENNNDMKKQGQAHG” the “soluble on expression in E. coli” value was “not soluble”. For “MEQQLTIEMIADAFSYDITGFDCGEEALNTFLKEHLKRQHDGQILRGYALVSGDTVPRLLGYYTLSGSCFERGMLPSKTQQKKIPYQNAPSVTLGRLAIDKSVQGQGWGEMLVAHVMRVVWGASKAVGIYGLFVEALNEKAKAFYLRLGFIQLVDENSNLLFYPTKSIEQLFTDDES”, the “soluble on expression in E. coli” value was “not soluble”. For “ARIMKAIFVLNAAPKDNTWYAGGKLGWSQYHDTGFYGNGFQNNNGPTRNDQLGAGAFGGYQVNPYLGFEMGYDWLGRMAYKGSVDNGAFKAQGVQLTAKLGYPITDDLDIYTRLGGMVWRADSKGNYASTGVSRSEHDTGVSPVFAGGVEWAVTRDIATRLEYQWVNNIGDAGTVGTRPDNGMLSLGVSYRFGQEDAAPVVAPAPAPAPEHHHHHH”, the “soluble on expression in E. coli” value was “soluble”. In the case of “RALEDEDMRKVFSRLSKSSTIPSDLRRTKELFILMFLLRGLPFVDLAYLRKSDLRGNVITYRRRKTGRSLSVTLTPESMLLLEKHISRDLSSPYLFPILHSIEGSQEAYREYQLALRSFNQHLELLGQWLGLESKLSSYTARHTWATTAYYCEIHPGIISEAMGHSSITVTETYLKPFRNRKIDEAN”, the “soluble on expression in E. coli” value was “not soluble”. With “MNNWREIAVRPDESIRETLEVIDEGAVQIAIVADGHDHLQGIVTDGDIRRGILKDLDLGAPVASVMNEDPITARPQEDRQSLIDTMRARRIHQIPLVDNEGRVVGIEVLDDLLEPEARPNPVVLMAGGLGTRLRPLTDDCPKPLLEVGDKPILETILEGFIAHGFHRFYLSVNYKAGMIEDYFRDGSNWGVDISYVHEEKRLGTAGPLSLLPERPDETMIVMNGDLLTKLNFTHLLDFHREHGAVATMCVREHETQVPYGVIETDDQSMEGIEEKPTERYFVNAGIYVLEPETLGYVPENEFFDMPDLFKRLIDEGKEATVFPVREYWQDVGRKEDFHRVNGEYEEVFDTLEHHHHHH” the “soluble on expression in E. coli” value was “soluble”.
